Drawing on patent US20250313635A1, “ANTI-INTEGRIN ANTIBODIES AND USES THEREOF” (Merck Sharp & Dohme LLC, priority 2022, published 2025), this text covers Integrin EC80 (batch dependent) for 11 substances.

For test [1], the target named is human Fibronectin (R&D Systems 1918-FN) (human) (UniProt P02751). The experiment in a line: AlphaLISA integrin-ligand binding, ligand at 1.0 nM.
The target of test [2] is human Vitronectin-GST tagged (EMD Millipore 08-126) (human) (UniProt P04004). Nature of the test: AlphaLISA integrin-ligand binding, ligand at 10.0 nM.
The target is the same in test [3]. Nature of the test: AlphaLISA integrin-ligand binding, ligand at 1.0 nM.
Test [4] concerns the target human LAP (R&D system 246-LP) (human) (UniProt P01137). The experiment in a line: AlphaLISA integrin-ligand binding, ligand at 0.5 nM.
The target is the same in test [5]. The experiment in a line: AlphaLISA integrin-ligand binding, ligand at 3.0 nM.
Test [6] has as its target mouse fibronectin (Abcam ab92784) (mouse) (UniProt P11276). The experiment in a line: AlphaLISA integrin-ligand binding, ligand at 2.5 nM.
Test [7] shares this target. Nature of the test: AlphaLISA integrin-ligand binding, ligand at 1.0 nM.
The target of test [8] is mouse Vitronectin (Abcam ab92727) (mouse) (UniProt P29788). The experiment in a line: AlphaLISA integrin-ligand binding, ligand at 5.0 nM.
Chain of mouse Vitronectin (Abcam ab92727) (mouse) (P29788 20-478 limits assumed): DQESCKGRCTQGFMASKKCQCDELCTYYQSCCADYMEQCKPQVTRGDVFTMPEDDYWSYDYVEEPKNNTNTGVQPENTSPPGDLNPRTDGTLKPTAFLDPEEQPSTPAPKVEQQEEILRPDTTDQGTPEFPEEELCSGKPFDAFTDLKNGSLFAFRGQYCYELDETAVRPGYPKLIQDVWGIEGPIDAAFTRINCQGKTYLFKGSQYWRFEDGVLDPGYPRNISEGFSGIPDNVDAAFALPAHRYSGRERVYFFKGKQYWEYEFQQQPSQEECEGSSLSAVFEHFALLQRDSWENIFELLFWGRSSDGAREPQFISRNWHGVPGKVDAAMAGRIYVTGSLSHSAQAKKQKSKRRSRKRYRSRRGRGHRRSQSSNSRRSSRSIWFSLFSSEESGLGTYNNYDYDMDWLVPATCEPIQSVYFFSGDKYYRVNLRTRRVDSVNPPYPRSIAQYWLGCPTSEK
Test [9] has the same target. Nature of the test: AlphaLISA integrin-ligand binding, ligand at 2.5 nM.
The target in test [10] is mouse LAP-6His (Chem partner) (mouse) (UniProt P04202). The test is described as above.
Chain of mouse LAP-6His (Chem partner) (mouse) (P04202 30-278 limits assumed): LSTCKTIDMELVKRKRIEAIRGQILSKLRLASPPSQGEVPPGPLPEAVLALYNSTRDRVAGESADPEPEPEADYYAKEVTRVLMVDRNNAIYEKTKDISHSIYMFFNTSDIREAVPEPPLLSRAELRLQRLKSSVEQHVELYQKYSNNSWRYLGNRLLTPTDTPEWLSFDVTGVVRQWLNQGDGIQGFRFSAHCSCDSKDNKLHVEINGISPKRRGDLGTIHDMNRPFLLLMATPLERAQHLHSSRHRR

Chain of human Fibronectin (R&D Systems 1918-FN) (human) (P02751 other isoform, or with tags, fused parts or gaps limits assumed): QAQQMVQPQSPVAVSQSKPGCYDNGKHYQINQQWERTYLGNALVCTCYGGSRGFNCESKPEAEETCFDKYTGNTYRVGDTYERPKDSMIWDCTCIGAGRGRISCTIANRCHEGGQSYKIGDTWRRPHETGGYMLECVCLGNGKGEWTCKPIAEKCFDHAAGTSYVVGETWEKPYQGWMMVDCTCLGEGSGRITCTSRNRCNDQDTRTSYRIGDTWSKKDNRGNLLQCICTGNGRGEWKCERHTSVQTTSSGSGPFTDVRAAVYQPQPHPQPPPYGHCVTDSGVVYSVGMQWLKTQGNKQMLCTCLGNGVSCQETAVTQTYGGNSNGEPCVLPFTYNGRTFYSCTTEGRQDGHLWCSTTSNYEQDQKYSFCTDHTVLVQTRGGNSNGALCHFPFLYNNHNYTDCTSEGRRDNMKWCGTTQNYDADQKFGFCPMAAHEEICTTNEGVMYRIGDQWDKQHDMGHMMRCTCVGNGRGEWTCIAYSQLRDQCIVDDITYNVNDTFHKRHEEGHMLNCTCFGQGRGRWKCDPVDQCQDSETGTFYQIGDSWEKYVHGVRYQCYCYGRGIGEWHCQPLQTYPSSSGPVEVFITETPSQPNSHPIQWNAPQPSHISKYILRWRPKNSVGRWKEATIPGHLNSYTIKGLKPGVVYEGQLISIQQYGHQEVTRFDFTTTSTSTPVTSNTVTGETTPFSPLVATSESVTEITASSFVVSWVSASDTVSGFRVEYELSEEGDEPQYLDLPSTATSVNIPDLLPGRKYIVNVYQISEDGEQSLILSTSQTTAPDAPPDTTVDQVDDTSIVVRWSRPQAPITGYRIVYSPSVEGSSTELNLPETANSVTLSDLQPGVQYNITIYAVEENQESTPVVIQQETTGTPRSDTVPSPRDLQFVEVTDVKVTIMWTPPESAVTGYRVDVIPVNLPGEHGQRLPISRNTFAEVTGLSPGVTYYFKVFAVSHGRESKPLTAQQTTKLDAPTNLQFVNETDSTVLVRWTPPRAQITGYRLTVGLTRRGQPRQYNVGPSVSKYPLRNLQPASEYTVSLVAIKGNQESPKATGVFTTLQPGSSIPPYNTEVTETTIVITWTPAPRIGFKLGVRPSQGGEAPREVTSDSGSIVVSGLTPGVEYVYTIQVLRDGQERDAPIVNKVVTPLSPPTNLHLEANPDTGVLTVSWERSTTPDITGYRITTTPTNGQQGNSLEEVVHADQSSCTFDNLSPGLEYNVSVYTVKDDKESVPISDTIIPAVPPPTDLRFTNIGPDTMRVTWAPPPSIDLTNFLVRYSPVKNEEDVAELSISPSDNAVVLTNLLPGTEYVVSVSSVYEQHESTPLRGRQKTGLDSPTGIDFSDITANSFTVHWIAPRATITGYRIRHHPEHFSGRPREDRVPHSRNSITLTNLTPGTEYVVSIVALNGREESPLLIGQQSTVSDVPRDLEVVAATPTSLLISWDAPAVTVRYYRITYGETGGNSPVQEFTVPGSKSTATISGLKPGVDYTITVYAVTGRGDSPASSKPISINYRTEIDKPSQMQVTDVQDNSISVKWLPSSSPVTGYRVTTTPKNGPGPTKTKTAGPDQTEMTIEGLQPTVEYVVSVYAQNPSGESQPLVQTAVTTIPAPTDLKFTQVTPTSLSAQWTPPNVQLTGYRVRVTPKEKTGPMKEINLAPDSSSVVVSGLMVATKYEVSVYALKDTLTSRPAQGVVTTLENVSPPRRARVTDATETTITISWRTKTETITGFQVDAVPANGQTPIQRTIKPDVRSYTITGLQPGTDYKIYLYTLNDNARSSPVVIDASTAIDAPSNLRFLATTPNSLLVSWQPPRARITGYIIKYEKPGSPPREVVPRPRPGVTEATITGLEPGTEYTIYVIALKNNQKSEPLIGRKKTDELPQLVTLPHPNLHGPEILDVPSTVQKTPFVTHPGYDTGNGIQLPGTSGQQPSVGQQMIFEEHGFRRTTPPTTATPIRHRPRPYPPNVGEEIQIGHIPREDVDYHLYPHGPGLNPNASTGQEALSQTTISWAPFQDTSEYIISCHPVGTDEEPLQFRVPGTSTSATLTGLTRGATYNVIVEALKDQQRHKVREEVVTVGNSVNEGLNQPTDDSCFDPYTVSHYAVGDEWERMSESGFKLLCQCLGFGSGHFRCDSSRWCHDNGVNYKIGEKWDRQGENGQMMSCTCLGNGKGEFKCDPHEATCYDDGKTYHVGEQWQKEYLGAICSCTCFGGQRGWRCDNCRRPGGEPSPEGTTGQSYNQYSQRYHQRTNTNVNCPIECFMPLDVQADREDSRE

As for “recombinant human αvβ1 integrin extracellular domains (from UniProt P06756 1-992; P05556 1-728) (receptor)”, the Integrin EC80 (batch dependent) in test [1] was determined as 1.4 nM.
For “recombinant human αvβ3 integrin extracellular domains (from UniProt P06756 1-992; P05106 1-718) (receptor)”, the Integrin EC80 (batch dependent) in [2] was found to be 3 nM.
As to “recombinant human αvβ5 integrin extracellular domains (from UniProt P06756 1-992; P18084 1-719) (receptor)”, the Integrin EC80 (batch dependent) in test [3] turned out to be 2.5 nM.
As for “recombinant human αvβ6 integrin extracellular domains (from UniProt P06756 1-992; P18564 1-709) (receptor)”, the Integrin EC80 (batch dependent) in test [4] was 0.1 nM.
“recombinant human αvβ8 integrin extracellular domains (from UniProt P06756 1-992; P26012 1-684) (receptor)” returned an Integrin EC80 (batch dependent) in test [5] of 1 nM.
In turn, “recombinant mouse α5β1 integrin extracellular domains (from UniProt P11688 1-999; P09055 1-728) (receptor)” displayed an Integrin EC80 (batch dependent) in test [6] of 1 nM.
Turning to “recombinant mouse αvβ1 integrin extracellular domains (from UniProt P43406 1-988; P09055 1-728) (receptor)”, in test [7], the Integrin EC80 (batch dependent) was 4.3 nM.
The substance “recombinant mouse αvβ3 integrin extracellular domains (from UniProt P43406 1-988; O54890 1-717) (receptor)” had an Integrin EC80 (batch dependent) in test [8] of 3 nM.
In test [9], “recombinant mouse αvβ5 integrin extracellular domains (from UniProt P43406 1-988; O70309 1-719) (receptor)” came in with an Integrin EC80 (batch dependent) of 0.6 nM.
On to “recombinant mouse αvβ6 integrin extracellular domains (from UniProt P43406 1-988; Q9Z0T9 1-706) (receptor)”, for which the Integrin EC80 (batch dependent) in test [10] worked out at 1.4 nM.
On the same count and under the same terms, the same measure for “recombinant mouse αvβ8 integrin extracellular domains (from UniProt P43406 1-988; Q0VBD0 1-679) (receptor)”: 1 nM.
